Three molecules from PMC4667630, “Localized reconstruction of subunits from electron cryomicroscopy images of macromolecular complexes” (Nature Communications, 2015) can be followed below.

The labels stand for the following.
B1: bacteriophage φ6 P2 RNA-dependent RNA polymerase (enzyme)
chain: PRRAPAFPLSDIKAQMLFANNIKAQQASKRSFKEGAIETYEGLLSVDPRFLSFKNELSRYLTDHFPANVDEYGRVYGNGVRTNFFGMRHMNGFPMIPATWPLASNLKKRADADLADGPVSERDNLLFRAAVRLMFSDLEPVPLKIRKGSSTCIPYFSNDMGTKIEIAERALEKAEEAGNLMLQGKFDDAYQLHQMGGAYYVVYRAQSTDAITLDPKTGKFVSKDRMVADFEYAVTGGEQGSLFAASKDASRLKEQYGIDVPDGFFCERRRTAMGGPFALNAPIMAVAQPVRNKIYSKYAYTFHHTTRLNKEEKVKEWSLCVATDVSDHDTFWPGWLRDLICDELLNMGYAPWWVKLFETSLKLPVYVGAPAPEQGHTLLGDPSNPDLEVGLSSGQGATDLMGTLLMSITYLVMQLDHTAPHLNSRIKDMPSACRFLDSYWQGHEEIRQISKSDDAILGWTKGRALVGGHRLFEMLKEGKVNPSPYMKISYEHGGAFLGDILLYDSRREPGSAIFVGNINSMLNNQFSPEYGVQSGVRDRSKRKRPFPGLAWASMKDTYGACPIYSDVLEAIERCWWNAFGESYRAYREDMLKRDTLELSRYVASMARQAGLAELTPIDLEVLADPNKLQYKWTEADVSANIHEVLMHGVSVEKTERFLRSVMPR
notes: P2, RNA-dependent RNA polymerase of bacteriophage φ6, 75 kDa, monomeric; X-ray structure PDB 1HHS was fitted into the density; also called P2 polymerase; source: self-assembled in vitro into P124 particles
B2: bacteriophage φ6 protein P1 (natural protein, UniProt P11126 1-769, looked up)
chain: MFNLKVKDLNGSARGLTQAFAIGELKNQLSVGALQLPLQFTRTFSASMTSELLWEVGKGNIDPVMYARLFFQYAQAGGALSVDELVNQFTEYHQSTACNPEIWRKLTAYITGSSNRAIKADAVGKVPPTAILEQLRTLAPSEHELFHHITTDFVCHVLSPLGFILPDAAYVYRVGRTATYPNFYALVDCVRASDLRRMLTALSSVDSKMLQATFKAKGALAPALISQHLANAATTAFERSRGNFDANAVVSSVLTILGRLWSPSTPKELDPSARLRNTNGIDQLRSNLALFIAYQDMVKQRGRAEVIFSDEELSSTIIPWFIEAMSEVSPFKLRPINETTSYIGQTSAIDHMGQPSHVVVYEDWQFAKEITAFTPVKLANNSNQRFLDVEPGISDRMSATLAPIGNTFAVSAFVKNRTAVYEAVSQRGTVNSNGAEMTLGFPSVVERDYALDRDPMVAIAALRTGIVDESLEARASNDLKRSMFNYYAAVMHYAVAHNPEVVVSEHQGVAAEQGSLYLVWNVRTELRIPVGYNAIEGGSIRTPEPLEAIAYNKPIQPSEVLQAKVLDLANHTTSIHIWPWHEASTEFAYEDAYSVTIRNKRYTAEVKEFELLGLGQRRERVRILKPTVAHAIIQMWYSWFVEDDRTLAAARRTSRDDAEKLAIDGRRMQNAVTLLRKIEMIGTTGIGASAVHLAQSRIVDQMAGRGLIDDSSDLHVGINRHRIRIWAGLAVLQMMGLLSRSEAEALTKVLGDSNALGMVVATTDIDPSL
notes: P1, major shell protein of the bacteriophage φ6 polymerase complex; atomic structure PDB 4K7H was fitted into the capsid map; also called P1 shell; source: self-assembled in vitro into P124 particles; copies: 120

The target of series [1] is rotavirus triple-layered particle, non-VP4 protein components (rotavirus (strain not stated)) (UniProt P12476). Kind of series: cryo-EM structure; rotavirus triple-layered particles, previously published data set (ref. 15); icosahedral reconstruction, subtraction of non-VP4 components, localized reconstruction and 3D classification of VP4 sub-particles.
Series [2] concerns the target B2. Kind of series: cryo-EM structure; φ6 P124 particles self-assembled in vitro from purified P1, P2 and P4 (molar ratio 120:120:72, 6% PEG 4000, room temperature, 90 min), separated by rate-zonal sucrose gradient centrifugation, 20 mM Tris pH 8.0; icosahedral reconstruction and localized reconstruction with 3D classification of sub-particles at the threefold axes. The settings on record: both partners purified.

Series [3] concerns the molecule itself. The description is as above.

Sequence of rotavirus triple-layered particle, non-VP4 protein components (rotavirus (strain not stated)) (P12476 whole entry, looked up): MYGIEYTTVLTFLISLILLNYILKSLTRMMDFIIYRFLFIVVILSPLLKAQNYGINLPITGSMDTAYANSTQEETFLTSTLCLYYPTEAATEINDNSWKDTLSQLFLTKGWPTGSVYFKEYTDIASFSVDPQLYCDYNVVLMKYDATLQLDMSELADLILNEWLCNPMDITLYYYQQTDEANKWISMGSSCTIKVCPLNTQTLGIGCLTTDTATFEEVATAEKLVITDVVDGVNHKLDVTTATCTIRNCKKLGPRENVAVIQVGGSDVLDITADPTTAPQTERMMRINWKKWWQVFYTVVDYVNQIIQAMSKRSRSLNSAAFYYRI

As to “rotavirus viral protein VP4 (from UniProt P12473 1-776) (natural protein)”, the occupancy of VP4 in series [1] was in the range of 60 to 70%.
On to B1, for which the “stoichiometry N” value in series [2] is ~12 copies of P2 per particle.
In the case of B2, in series [3], the binding result was “binds”.
